Laboratory results as given in the Human Domainome abundance scans (Beltran et al. 2025).
± gives the uncertainty stated by the source.

B1: Formin-binding protein 4, residues 200 to 261; numbered along this chain, Q8N3X1 (parent)
chain: SGWQYDTQCSLAGVGIEMGDWQEVWDENTGCYYYWNTQTNEVTWELPQYLATQVQGLQHYQP

Variants of: B1
Test: abundance fitness (aPCA) (normalised: wild type 0, dead -1); higher = more abundant; growth selection in yeast, the domain comes from the species named
Conditions: Homo sapiens
With Q53C the abundance fitness was -0.738 ± 0.27.
With Q53G the abundance fitness was -0.688 ± 0.12.
Variant Q53L has an abundance fitness of -0.457 ± 0.073.
With Q53K the abundance fitness was -0.188 ± 0.13.
Q53H showed an abundance fitness of -0.68 ± 0.17.
Variant Q53T has an abundance fitness of -0.606 ± 0.12.
Q53W showed an abundance fitness of -0.634 ± 0.22.
For Q53I, the abundance fitness was -0.611 ± 0.19.
With Q53V the abundance fitness was -0.679 ± 0.099.
With Q53A the abundance fitness was -0.407 ± 0.11.
With Q53S the abundance fitness was -0.765 ± 0.13.
Variant Q53D has an abundance fitness of -0.314 ± 0.16.
Variant Q53P has an abundance fitness of -0.663 ± 0.15.
Q53R gave an abundance fitness of -0.215 ± 0.086.
Q53F showed an abundance fitness of -0.621 ± 0.13.
Q53M showed an abundance fitness of -0.624 ± 0.14.
Variant Q53E has an abundance fitness of -0.588 ± 0.14.
T52P gave an abundance fitness of -0.486 ± 0.12.
T52A gave an abundance fitness of 0.085 ± 0.071.
Variant T52M has an abundance fitness of -0.218 ± 0.11.
T52R gave an abundance fitness of 0.034 ± 0.062.
In the case of T52K, the abundance fitness is reported as 0.335 ± 0.11.
In the case of T52S, the abundance fitness is reported as 0.008 ± 0.067.
With T52G the abundance fitness was 0.038 ± 0.074.
Work on T52N yielded an abundance fitness of -0.028 ± 0.15.
With T52I the abundance fitness was 0.029 ± 0.12.
T52L showed an abundance fitness of -0.064 ± 0.057.
T52D gave an abundance fitness of 0.301 ± 0.11.
For T52Q, the abundance fitness was -0.202 ± 0.091.
With T52W the abundance fitness was -0.295 ± 0.097.
Variant T52V has an abundance fitness of -0.011 ± 0.067.
T52Y showed an abundance fitness of -0.248 ± 0.13.
G56W showed an abundance fitness of -0.16 ± 0.11.
With G56D the abundance fitness was 0.177 ± 0.091.
G56P showed an abundance fitness of -0.178 ± 0.089.
Variant G56Y has an abundance fitness of -0.401 ± 0.15.
Work on G56I yielded an abundance fitness of -0.425 ± 0.13.
G56V gave an abundance fitness of -0.219 ± 0.078.
Variant G56C has an abundance fitness of -0.255 ± 0.13.
Work on G56M yielded an abundance fitness of -0.367 ± 0.11.
Work on G56S yielded an abundance fitness of -0.031 ± 0.06.
In the case of G56N, the abundance fitness is reported as 0.051 ± 0.12.
In the case of G56F, the abundance fitness is reported as -0.464 ± 0.12.
With G56L the abundance fitness was -0.209 ± 0.058.
Work on G56A yielded an abundance fitness of -0.018 ± 0.078.
G56Q showed an abundance fitness of 0.076 ± 0.09.
Work on G56T yielded an abundance fitness of 0.015 ± 0.088.
Variant G56H has an abundance fitness of -0.186 ± 0.17.
In the case of G56R, the abundance fitness is reported as 0.004 ± 0.066.
With G56E the abundance fitness was 0.224 ± 0.086.
For Q55E, the abundance fitness was -0.268 ± 0.099.
In the case of Q55M, the abundance fitness is reported as -0.102 ± 0.085.
Work on Q55K yielded an abundance fitness of -0.173 ± 0.087.
In the case of Q55T, the abundance fitness is reported as -0.18 ± 0.092.
Q55C showed an abundance fitness of 0.121 ± 0.18.
Work on Q55S yielded an abundance fitness of -0.177 ± 0.077.
In the case of Q55H, the abundance fitness is reported as -0.482 ± 0.26.
With Q55F the abundance fitness was -0.018 ± 0.17.
Q55I showed an abundance fitness of -0.321 ± 0.17.
With Q55A the abundance fitness was -0.012 ± 0.084.
With Q55Y the abundance fitness was -0.389 ± 0.16.
Variant Q55V has an abundance fitness of -0.173 ± 0.083.
Q55N gave an abundance fitness of -0.186 ± 0.19.
In the case of Q55R, the abundance fitness is reported as -0.12 ± 0.064.
Work on Q55D yielded an abundance fitness of -0.005 ± 0.19.
For Q55W, the abundance fitness was 0.039 ± 0.081.
Q55L showed an abundance fitness of -0.184 ± 0.064.
In the case of Q55P, the abundance fitness is reported as -0.647 ± 0.11.
Work on V54E yielded an abundance fitness of -0.741 ± 0.15.
Variant V54A has an abundance fitness of -0.336 ± 0.088.
For V54P, the abundance fitness was -0.741 ± 0.16.
V54Q gave an abundance fitness of -0.754 ± 0.16.
With V54D the abundance fitness was -0.644 ± 0.16.
Variant V54Y has an abundance fitness of -0.274 ± 0.17.
V54T gave an abundance fitness of -0.403 ± 0.11.
Variant V54K has an abundance fitness of -0.589 ± 0.14.
Work on V54R yielded an abundance fitness of -0.625 ± 0.086.
Work on V54N yielded an abundance fitness of -0.48 ± 0.19.
Work on V54S yielded an abundance fitness of -0.603 ± 0.092.
In the case of V54F, the abundance fitness is reported as -0.214 ± 0.099.
Variant V54L has an abundance fitness of -0.094 ± 0.066.
For V54I, the abundance fitness was 0.1 ± 0.093.
Work on V54H yielded an abundance fitness of -0.716 ± 0.19.
V54G showed an abundance fitness of -0.546 ± 0.07.
V54M showed an abundance fitness of 0.055 ± 0.094.
H59E gave an abundance fitness of 0.137 ± 0.079.
For H59I, the abundance fitness was 0.045 ± 0.097.
In the case of H59F, the abundance fitness is reported as -0.062 ± 0.084.
Variant H59K has an abundance fitness of 0.188 ± 0.078.
H59G showed an abundance fitness of -0.017 ± 0.076.
For H59A, the abundance fitness was 0.008 ± 0.073.
With L57N the abundance fitness was -0.212 ± 0.1.
For L57P, the abundance fitness was -0.075 ± 0.086.
Work on L57S yielded an abundance fitness of -0.084 ± 0.073.
L57C showed an abundance fitness of -0.305 ± 0.12.
With L57K the abundance fitness was 0.312 ± 0.083.
With L57H the abundance fitness was -0.084 ± 0.1.
L57D showed an abundance fitness of -0.043 ± 0.12.
With L57Q the abundance fitness was 0.047 ± 0.078.
L57I gave an abundance fitness of -0.136 ± 0.12.
L57V showed an abundance fitness of -0.047 ± 0.063.
Variant L57R has an abundance fitness of -0.029 ± 0.056.
With L57Y the abundance fitness was -0.315 ± 0.13.
L57W gave an abundance fitness of -0.349 ± 0.078.
Variant L57E has an abundance fitness of -0.093 ± 0.087.
Variant L57F has an abundance fitness of 0.02 ± 0.1.
In the case of L57M, the abundance fitness is reported as -0.159 ± 0.086.
In the case of L57G, the abundance fitness is reported as -0.15 ± 0.061.
Variant L50F has an abundance fitness of -0.716 ± 0.13.
Variant L50Q has an abundance fitness of -0.7 ± 0.13.
Work on L50E yielded an abundance fitness of -0.488 ± 0.13.
For L50R, the abundance fitness was -0.82 ± 0.091.
For L50Y, the abundance fitness was -0.738 ± 0.17.
L50M showed an abundance fitness of -0.52 ± 0.13.
For L50N, the abundance fitness was -1.06 ± 0.38.
Variant L50K has an abundance fitness of -0.719 ± 0.17.
Variant L50D has an abundance fitness of -1.04 ± 0.26.
L50W gave an abundance fitness of -0.48 ± 0.11.
Variant L50H has an abundance fitness of -0.732 ± 0.22.
For L50T, the abundance fitness was -0.704 ± 0.16.
Work on L50I yielded an abundance fitness of -0.214 ± 0.1.
Variant L50A has an abundance fitness of -0.822 ± 0.12.
Work on L50P yielded an abundance fitness of -0.741 ± 0.14.
Work on L50G yielded an abundance fitness of -0.767 ± 0.096.
L50S gave an abundance fitness of -0.613 ± 0.094.
In the case of L50C, the abundance fitness is reported as -0.45 ± 0.11.
Y49P showed an abundance fitness of -0.165 ± 0.084.
Y49M showed an abundance fitness of -0.113 ± 0.084.
With Y49T the abundance fitness was -0.007 ± 0.089.
With Y49S the abundance fitness was 0.126 ± 0.065.
For Y49V, the abundance fitness was -0.097 ± 0.067.
Y49N showed an abundance fitness of -0.162 ± 0.12.
Variant Y49W has an abundance fitness of -0.266 ± 0.093.
Y49R showed an abundance fitness of -0.527 ± 0.088.
With Q58R the abundance fitness was -0.242 ± 0.066.
Q58W showed an abundance fitness of -0.421 ± 0.091.
With Q58G the abundance fitness was -0.086 ± 0.056.
In the case of Q58M, the abundance fitness is reported as -0.067 ± 0.086.
Work on Q58F yielded an abundance fitness of -0.195 ± 0.091.
With Q58L the abundance fitness was -0.36 ± 0.072.
Variant Q58H has an abundance fitness of -0.005 ± 0.14.
Variant Q58K has an abundance fitness of 0.127 ± 0.093.
Q58C showed an abundance fitness of -0.293 ± 0.12.
Q58Y showed an abundance fitness of -0.256 ± 0.16.
Variant Q58N has an abundance fitness of 0.083 ± 0.14.
In the case of Q58P, the abundance fitness is reported as -0.209 ± 0.11.
Variant Q58E has an abundance fitness of -0.059 ± 0.088.
Q58T gave an abundance fitness of -0.139 ± 0.093.
Q58A gave an abundance fitness of -0.019 ± 0.075.
A51R showed an abundance fitness of -0.087 ± 0.065.
A51Q showed an abundance fitness of -0.519 ± 0.13.
With A51T the abundance fitness was -0.306 ± 0.13.
A51P showed an abundance fitness of -0.752 ± 0.16.
Work on A51G yielded an abundance fitness of -0.346 ± 0.072.
Work on A51E yielded an abundance fitness of -0.3 ± 0.1.
A51D showed an abundance fitness of -0.388 ± 0.12.
A51S showed an abundance fitness of -0.178 ± 0.078.
For A51C, the abundance fitness was -0.145 ± 0.11.
A51K gave an abundance fitness of -0.025 ± 0.12.
For A51L, the abundance fitness was -0.323 ± 0.083.
In the case of A51W, the abundance fitness is reported as -0.175 ± 0.091.
Work on A51V yielded an abundance fitness of -0.237 ± 0.097.
With A51H the abundance fitness was -0.308 ± 0.28.
A51N gave an abundance fitness of -0.237 ± 0.33.
A51Y gave an abundance fitness of -0.124 ± 0.16.
Work on A51M yielded an abundance fitness of -0.245 ± 0.14.
For A51I, the abundance fitness was -0.703 ± 0.19.
